Data reported in patent US20150231240A1, “ANTI-C16ORF54 ANTIBODIES AND METHODS OF USE THEREOF” (priority 2012, published 2015).

T1: extracellular domain of c16orf54 (amino acids 1-31) fused to human IgG1 Fc (Homo sapiens, UniProt Q6UWD8)
T1 construct: the extracellular domain of c16orf54 (amino acids 1-31) either N terminal or C-terminal to a human IgG1 Fc domain; made in house; host or cells: 293 T cells, transient; Protein A purification
T1 sequence (Q6UWD8 1-31 limits assumed): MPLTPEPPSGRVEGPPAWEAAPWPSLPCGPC

T2: human C16orf54 (Homo sapiens, UniProt Q6UWD8)
T2 construct: expressed in transfected cells; host or cells: murine sarcoma cells (D42M1-huC16orf54)
T2 sequence (Q6UWD8 1-224): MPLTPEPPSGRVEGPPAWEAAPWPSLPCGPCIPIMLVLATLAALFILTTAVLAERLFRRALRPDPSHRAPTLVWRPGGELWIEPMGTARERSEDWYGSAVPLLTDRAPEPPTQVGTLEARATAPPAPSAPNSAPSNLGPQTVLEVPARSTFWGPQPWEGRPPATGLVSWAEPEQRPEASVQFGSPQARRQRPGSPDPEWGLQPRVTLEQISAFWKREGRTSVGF

T3: human C16orf54 extracellular domain peptides (Homo sapiens, UniProt Q6UWD8)
T3 sequence (Q6UWD8 1-31): T1 sequence (Q6UWD8 1-31 limits assumed)

T4: N-terminal 32 amino acids of huC16orf54 (Homo sapiens, UniProt Q6UWD8)
T4 sequence (Q6UWD8 1-32 limits assumed): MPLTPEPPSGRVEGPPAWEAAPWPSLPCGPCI

T5: huC16orf54 (cells expressing C16orf54) (Homo sapiens, UniProt Q6UWD8)
T5 construct: expressed in transfected cells; host or cells: murine sarcoma cell line, retrovirally transduced (inferred from b529 and b531; b587 says only 'cells expressing C16orf54')
T5 sequence (Q6UWD8 1-224): T2 sequence (Q6UWD8 1-224)

B1: R29-8-58C: murine anti-C16orf54 monoclonal antibody; VH SEQ ID NO: 40, VL SEQ ID NO: 42 (antibody, V domains shown)
VH: MNFGFSLIFLVLVSKGVQCEVKLVESGGGLVKPGGSLKFSCAASGFTFSSYAVSWVRQTPEKRLEWVASITSGGRSYYPDSVKGRFTISRDNARSMLYLHMSSLRSEDTAMYYCTRGWDENDLWGQGTTLTVSS
VL: MKLPVRLLVLMFWIPASSSDVVMTQTPLSLFVSLGDQASISCRSSQSLLYSNGNTYLHWYLQRPGQSPQLLIYKVSNRFSGVPDRFSGSGSGTDFTLKISRVEAEDLGVYFCSQTTHVPWTFGGGTKLEIK
modifications: R29-8-58C heavy chain variable region; R29-8-58C light chain variable region
B2: R29-8-75B: murine anti-C16orf54 monoclonal antibody; VH SEQ ID NO: 56, VL SEQ ID NO: 58 (antibody, V domains shown)
VH: MDSRLNLVFLVLILKGVQCDVQLVESGGGLVQPGGSRKLSCAASGFTFSRFGMHWVRQAPEKGLEWVAYISSGSSTIYYADTVKGRFTISRDNPKNTLFLQMTSLRSEDTAMYYCARVDYDVALAYWGQGTLVTVSA
VL: MKLPVRLLVLMFWIPASSSGVLMTQTPLSLPVSLGDQASISCRSSQSIVHRNGNTYLEWYLQKPGQSPKLLIYKVSNRFSGVPDRFSGSGSGTDFTLKISRVEAEDLGVYYCFQGSQWTFGGGTKLEIK
modifications: R29-8-75B heavy chain variable region; R29-8-75B light chain variable region
B3: R29-7-2A: murine anti-C16orf54 monoclonal antibody, IgG2b; VH SEQ ID NO: 4, VL SEQ ID NO: 6 (antibody, V domains shown)
VH: MLLGLKWVFFVVFYQGVPCEVQLVESGGGLIQPKGSLKLSCVASGFSFNTHAMNWVRQAPGKGLEWVARIRSKSNNYARYYADSVKDRFTISRDDSQSILYLQMNNLKTEDTAMYYCVKQGDGGFAYWGQGTLVTVSA
VL: MDSQAQVLMLLLLWVSGTCGDIVMSQSPSSLAVSVGEKVTMSCKSSQSLLYSSNQKNYLAWYQQRPGQSPKLLIYWASARESGVPDRFTGSGSGTDFTLTISSVKAEDLAVYYCQQYYSYPPTFGAGTKVELK
modifications: R29-7-2A heavy chain variable region; R29-7-2A light chain variable region

Assays:
[1] = system: cyno C16orf54; experiment: Flow cytometry cross-reactivity with sarcoma cells expressing cyno C16orf54 (fold change over isotype); type: binding, cynomolgous monkeys; conditions: 10 μg/ml antibody
Chain of cyno C16orf54 (as listed by the source): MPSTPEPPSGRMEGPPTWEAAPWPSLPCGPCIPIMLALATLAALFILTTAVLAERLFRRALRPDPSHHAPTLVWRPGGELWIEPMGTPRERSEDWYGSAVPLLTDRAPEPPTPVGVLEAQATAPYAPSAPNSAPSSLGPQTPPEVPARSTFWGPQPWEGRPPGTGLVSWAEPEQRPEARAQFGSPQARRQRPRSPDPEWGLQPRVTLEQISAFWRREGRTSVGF
Description: (§1) Anti-C16orf54 antibodies which bound to human C16orf54 were tested for their reactivity with human C16orf54 and their crossreactivity with C16orf54 from cynomolgous monkeys (cyno C16orf54) using flow cytometry. Sarcoma cells transfected with and expressing human C16orf54 or cyno C16orf54 were washed with PBS with 0.1% BSA, incubated with FcX receptor blocking solution (BioLegend) for 15 minutes, incubated with 10 μg/ml of anti-C16orf54 antibody for 1 hour at 4° C., washed twice with PBS with 0.1% BSA, incubated with 20 μg/ml of R-Phycoerythrin-AffiniPure F(ab′)2 Fragment Goat Anti-Mouse IgG, Fcγ Fragment Specific (Jackson ImmunoResearch) for 30 minutes at 4° C., washed twice with PBS with 0.1% BSA, incubated with the viability dye TO-PRO-3 iodide (Life Technologies), and immediately analyzed on a MACSQuant Analyzer instrument (Miltenyi). For each cell line and anti-C16orf54 antibody, a fold change was derived by dividing the median fluorescence intensity for Phycoerythrin in the live cell population for the anti-C16orf54 antibody by the median fluorescence intensity for Phycoerythrin in the live cell population for the IgG isotype control antibody.

[2] = molecular target: T1, extracellular domain of c16orf54 (amino acids 1-31) fused to human IgG1 Fc; experiment: C16orf54 peptide-Fc fusion protein ELISA; type: binding; conditions: serial dilution of antibody; HRP-conjugated anti mouse secondary
Description: Anti-C16orf54 antibodies which bind to human C16orf54, including antibodies that are crossreactive with cyno C16orf54, were tested for their binding to various peptides derived from C16orf54 that were fused to human IgG (e.g., IgG1) constant regions to generate various peptide-Fc fusion proteins in an Fc-based ELISA. An exemplary Fc sequence comprises an IgG1 Hinge region sequence and IgG1 CH3 and […] domain sequences.
The fusion proteins were transiently expressed in 293 T cells. Protein was purified from the 293 expression supernatants by Protein A-based affinity purification. Exemplary C16 peptide-Fc fusion constructs that were made and purified are shown with their protein yield in Table 38. ELISA assays were performed by coating 384 well plates with the fusion proteins overnight at 4C. Antibodies were analyzed by serial dilution with concentrations ranging from 40 ug/mL to […]. Binding was detected with an HRP-conjugated anti mouse secondary antibody.

[3] = molecular target: T2, human C16orf54; experiment: Flow cytometry reactivity with sarcoma cells expressing human C16orf54 (fold change over isotype); type: binding
Description: as §1

[4] = system: C16orf54 ECD peptides; experiment: Peptide crossblocking (Table 36); type: binding
[5] = system: cyno C16orf54 extracellular domain peptides; experiment: C16orf54 peptide ELISA, cyno extracellular domain peptides; type: binding; conditions: 10 μg/ml antibody
Chain of cyno C16orf54 extracellular domain peptides (as listed by the source): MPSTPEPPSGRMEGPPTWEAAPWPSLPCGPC
Description: (§2) Anti-C16orf54 antibodies which bind to human C16orf54, including antibodies that are crossreactive with cyno C16orf54, were tested for their binding to various peptides derived from C16orf54 in a peptide ELISA. A 384-well high binding black microplate (Greiner) was incubated with 2 μg/ml of protein (human, cyno, or mouse extracellular domain peptides) for 16 hours, incubated for 1 hr with a blocking buffer (PBS with 5% Fetal Bovine Serum), washed four times with TBS with Tween, incubated for 1 hour with 10 μg/ml of anti-C16orf54 antibody, washed four times with TBS with Tween, incubated for 1 hour with 10 μg/ml of Peroxidase-AffiniPure Goat Anti-Mouse IgG, Fcγ Fragment Specific (Jackson ImmunoResearch), washed four times with TBS with Tween, and peroxidase was detected with a luminometer (Molecular Devices) upon addition of SuperSignal® ELISA Pico Chemiluminescent Substrate (Thermo Scientific). The luminescence signal was determined.

[6] = system: human C16orf54 extracellular domain peptides; experiment: C16orf54 peptide ELISA, human extracellular domain peptides; type: binding; conditions: human, cyno, or mouse extracellular domain peptides, not told apart; 10 μg/ml antibody
Description: as §2

[7] = molecular target: T3, human C16orf54 extracellular domain peptides; experiment: as above; type: binding; conditions: peptide ELISA, 10 μg/ml antibody
Description: as §2

[8] = molecular target: T4, N-terminal 32 amino acids of huC16orf54; experiment: Affinity measurements of purified antibodies on OctetQK384; type: binding; conditions: purified antibody, streptavidin sensors coated with N-terminal 32 amino acids of huC16orf54 coupled to biotin
Description: Affinity measurements of purified anti-huC16orf54 antibodies were carried out on the OctetQK384® sytem (ForteBio). After coating streptavidin sensors with the N-terminal 32 amino acids of huC16orf54 coupled to biotin at the C-terminus, association and dissociation of purified anti-huC16orf54 antibodies was monitored. KD values were derived using ForteBio's software.

[9] = molecular target: T4, N-terminal 32 amino acids of huC16orf54; experiment: Off-rate screen of hybridoma supernatants on OctetQK384 (biolayer interferometry); type: binding; conditions: calculated off-rate
Description: Eight anti-huC16orf54 monoclonal antibodies were further screened for binding and subsequent off-rate analysis using the OctetQK384® sytem (ForteBio). Hybridoma supernatants were screened for association to and dissocation from streptavidin sensors coated with the N-terminal 32 amino acids of huC16orf54 coupled to biotin, and the calculated offrates (kdis) are shown in Table 31. Cloned hybridomas with […] off-rates were carried forward for antibody purification.

[10] = system: KG-1 (acute myeloid leukemia) xenograft; type: in vivo, NOD-SCID mice
Description: Subcutaneous tumors are generated by injection of 1×10^7 cancer cells in a mixture of PBS (without magnesium or calcium) and BD Matrigel™ (BD Biosciences) at a 1:1 ratio in the right flank of female SCID or nu^−/− mice. The injected total volume per mouse is […] with 50% being Matrigel (BD Biosciences). Mice are randomized once tumors reach a size between 65-200 mm^3. Antibodies are administered weekly, and body weights and tumors are measured once and twice weekly, respectively. Tumor volume is calculated as described (van der Horst et al. (2009) Neoplasia 11: 355-364). As a negative control, mice are injected with either purified mouse IgG or PBS; or a purified monoclonal antibody that recognizes an antigen other than C16orf54.
Anti-C16orf54 antibodies were tested for their anti-tumor activity in an animal-tumor model. For these studies, the cell line KG-1 (acute myeloid leukemia) was obtained from ATCC and cultured according to the suppliers' protocols. Animals were obtained from Taconic (Hudson, N.Y.). Studies were conducted with anti-C16orf54 antibodies and antibody-drug conjugates (ADCs) of these antibodies.
In these experiments, 4-6 week-old immunodeficient NOD-SCID female mice were used for the KG-1 tumor model. Mice were subcutaneously injected on the right flank with 6×10^6 viable cells (KG-1) in a mixture of PBS (without magnesium or calcium) and BD Matrigel™ (BD Biosciences). Once the tumor reached a size between 65-200 mm^3 mice were randomized. Anti-C16orf54 antibodies were administered weekly, and bodyweights and tumors were measured once and twice weekly, respectively. Tumor volume was calculated as described (van der Horst et al., supra). Experiments were performed on groups of at least eight animals per experimental point.
Statistical significance between treatment and control groups was calculated using the Graphpad Prism® software package and applying Student's two-tailed t-test. A p-value of less than 0.05 was considered significant.

[11] = molecular target: T5, huC16orf54 (cells expressing C16orf54); experiment: Competition ELISA to establish relative binding properties; conditions: hybridoma supernatant; 2 hours with competing mixture of antibodies of a different isotype
Description: Another competition ELISA was performed to establish relative binding properties. Individual anti-huC16orf54 isotyped (e.g., IgG2a) antibody containing hybridoma supernatants were allowed to bind to huC16orf54 in individual wells of an ELISA plate containing cells expressing C16orf54. After 30 min, the wells were washed. Then individual wells of the ELISA plate were incubated for 2 hours with either buffer or a competing mixture of anti-huC16orf54 isotyped antibodies (of a different isotype, e.g., IgG1 and IgG2b in the case of an IgG2a antibody). After washing, the wells were incubated with a specific secondary antibody (for example, Jackson Immunologicals Goat×IgG2a HRP—Product#115-035-206) and detected with SuperSignal® ELISA Pico Chemiluminescent substrate (Thermo Scientific—Product#37069). For each anti-huC16orf54 isotyped (e.g., IgG2a) antibody containing hybridoma supernatant, relative binding properties were calculated as follows: [(Average luminescence in wells incubated with buffer)−(Average luminescence in wells incubated with mixture of anti-huC16orf54 isotyped antibodies of a different isotype)]/[(Average luminescence in wells incubated with buffer)].

Molecule | Median fold change relative to IgG control in F279-cyno-C16orf54 cells [1] | binding to peptide-Fc fusion proteins (Fc-based ELISA) [2] | binding to C16orf54-expressing cells (dual binders) [3] | Peptide crossblocking [4] | Cyno ECD bound by antibody [5] | binding to peptides derived from the extracellular domain of C16orf54 (peptide ELISA) [6] | Human ECD & ECD fragments bound by antibody [7] | kdis [8] [s⁻¹] | kon [8] [M⁻¹ s⁻¹] | kdis [9] [s⁻¹] | binding to human C16orf54 (flow cytometry) ([3]; sarcoma cells expressing human C16orf54, 10 μg/ml antibody) | tumor growth inhibition (in words) ([10]; KG-1 xenograft, compared to control IgG, antibodies weekly) | TGI (tumor growth inhibition) ([10]; Table 42, KG-1 AML model, NOD-SCID mice, weekly administration) [%] | Mean (tumor volume) ([10]; Table 42, KG-1 AML model, NOD-SCID mice, weekly administration, in mm³ (unit assumed)) | relative binding properties: signal loss upon incubation with competition mixture [11]
B1 | 1.4 |  |  |  |  |  |  |  |  |  |  |  |  |  | 
B2 |  | able to bind to the peptide-Fc fusion proteins | bind to C16orf54-expressing cells | aa1-31, aa9-24 | aa1-31 | bind to the various peptides derived from the extracellular domain (ECD) of C16orf54 | aa1-31, aa1-15, aa9-24 |  |  |  |  |  |  |  | 
B3 |  |  | bind to C16orf54-expressing cells | aa1-31 |  | bind to the various peptides derived from the extracellular domain (ECD) of C16orf54 | aa1-31, aa1-15, aa9-24 | 4.12e-05 ± 9.7e-06 | 31900 ± 4600 | 0.00707 | bind human C16orf54 | did not induce any statistically significant tumor growth inhibition | −17 | 2572.5 | little signal loss upon incubation with the competition mixture
